Results: patent US20170190753A1 (LABORATOIRE FRANCAIS DU FRACTIONNEMENT ET DES …, published 2017)

Molecular target: C3 convertase complex (UniProt P01024 23-1663; P00751 260-764)
Test: cell-based or functional assay
Wherever C3 convertase activity % of the control is given: test concentration or dose not given here.

Sequence of C3 convertase complex (P01024 23-1663, chain 1 of 2): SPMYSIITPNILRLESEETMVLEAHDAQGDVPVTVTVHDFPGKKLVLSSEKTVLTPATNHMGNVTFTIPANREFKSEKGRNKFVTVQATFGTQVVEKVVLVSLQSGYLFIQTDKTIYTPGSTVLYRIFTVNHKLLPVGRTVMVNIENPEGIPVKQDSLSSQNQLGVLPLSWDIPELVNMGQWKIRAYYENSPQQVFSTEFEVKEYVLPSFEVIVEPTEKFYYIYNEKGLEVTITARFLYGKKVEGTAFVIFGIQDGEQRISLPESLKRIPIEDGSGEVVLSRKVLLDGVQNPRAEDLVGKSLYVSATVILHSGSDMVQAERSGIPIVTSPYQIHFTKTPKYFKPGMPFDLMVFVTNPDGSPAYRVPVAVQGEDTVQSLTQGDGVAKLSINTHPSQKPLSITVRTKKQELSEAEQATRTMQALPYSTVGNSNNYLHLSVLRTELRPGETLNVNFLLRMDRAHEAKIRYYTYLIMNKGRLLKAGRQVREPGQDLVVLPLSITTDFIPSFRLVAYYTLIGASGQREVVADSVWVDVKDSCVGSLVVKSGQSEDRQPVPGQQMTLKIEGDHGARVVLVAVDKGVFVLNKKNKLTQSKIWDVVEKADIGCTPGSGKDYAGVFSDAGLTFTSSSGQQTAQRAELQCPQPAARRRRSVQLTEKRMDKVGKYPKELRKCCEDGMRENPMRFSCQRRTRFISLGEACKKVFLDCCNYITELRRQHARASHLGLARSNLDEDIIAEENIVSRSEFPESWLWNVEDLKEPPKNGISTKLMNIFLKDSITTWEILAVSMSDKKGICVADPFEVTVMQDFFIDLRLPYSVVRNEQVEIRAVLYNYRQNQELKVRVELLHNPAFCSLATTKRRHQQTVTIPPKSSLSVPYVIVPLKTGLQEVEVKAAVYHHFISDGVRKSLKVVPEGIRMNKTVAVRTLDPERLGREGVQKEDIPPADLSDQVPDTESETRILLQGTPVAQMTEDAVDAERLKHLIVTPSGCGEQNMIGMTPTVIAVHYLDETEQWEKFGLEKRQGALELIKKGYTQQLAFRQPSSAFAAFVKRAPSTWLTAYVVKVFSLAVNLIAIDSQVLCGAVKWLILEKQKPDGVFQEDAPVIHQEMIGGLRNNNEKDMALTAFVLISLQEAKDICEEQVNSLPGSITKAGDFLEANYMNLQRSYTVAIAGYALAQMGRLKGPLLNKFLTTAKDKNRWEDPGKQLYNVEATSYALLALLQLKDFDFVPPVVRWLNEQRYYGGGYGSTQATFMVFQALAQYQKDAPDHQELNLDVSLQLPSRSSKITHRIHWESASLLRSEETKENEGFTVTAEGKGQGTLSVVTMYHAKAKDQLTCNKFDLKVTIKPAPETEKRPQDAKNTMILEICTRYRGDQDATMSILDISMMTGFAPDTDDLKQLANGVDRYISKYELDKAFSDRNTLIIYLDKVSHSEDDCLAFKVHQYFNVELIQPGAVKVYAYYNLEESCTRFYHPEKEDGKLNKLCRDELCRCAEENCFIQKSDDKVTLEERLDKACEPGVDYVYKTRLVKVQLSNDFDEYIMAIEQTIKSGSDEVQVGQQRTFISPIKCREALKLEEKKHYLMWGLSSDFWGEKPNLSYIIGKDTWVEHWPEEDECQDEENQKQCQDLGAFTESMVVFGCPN
Sequence of C3 convertase complex (P00751 260-764, chain 2 of 2): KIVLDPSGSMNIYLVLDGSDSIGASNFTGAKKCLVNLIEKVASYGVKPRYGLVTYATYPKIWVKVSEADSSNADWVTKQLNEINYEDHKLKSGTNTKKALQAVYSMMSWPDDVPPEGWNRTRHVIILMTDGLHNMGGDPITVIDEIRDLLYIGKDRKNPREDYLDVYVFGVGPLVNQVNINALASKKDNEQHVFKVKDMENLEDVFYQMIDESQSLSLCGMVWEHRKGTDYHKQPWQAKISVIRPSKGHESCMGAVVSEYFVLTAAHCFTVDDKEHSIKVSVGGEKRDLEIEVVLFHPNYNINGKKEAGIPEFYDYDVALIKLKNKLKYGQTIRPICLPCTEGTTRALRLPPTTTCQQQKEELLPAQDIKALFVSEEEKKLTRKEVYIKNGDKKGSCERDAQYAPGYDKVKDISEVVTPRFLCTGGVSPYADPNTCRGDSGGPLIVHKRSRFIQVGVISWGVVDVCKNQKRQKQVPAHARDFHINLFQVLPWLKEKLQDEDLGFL

B1: pCEP4-1NT8-19CT20 (other)
chain: EDCNELPPRRNTEILTGSWSDQTYPEGTQAIYKCRPGYRSLGNVIMVCRKGEWVALNPLRKCQKRPCGHPGDTPFGTFTLTGGNVFEYGVKAVYTCNEGYQLLGEINYRECDTDGWTNDIPICEVVKCLPVTAPENGKIVSSAMEPDREYHFGQAVRFVCNSGYKIEGDEEMHCSDDGFWSKEKPKCVEISCKSPDVINGSPISQKIIYKENERFQYKCNMGYEYSERGDAVCTESGWRPLPSCEEKSCDNPYIPNGDYSPLRIKHRTGDEITYQCRNGFYPATRGNTAKCTSTGWIPAPRCTLKPCDYPDIKHGGLYHENMRRPYFPVAVGKYYSYYCDEHFETPSGSYWDHIHCTQDGWSPAVPCLRKCYFPYLENGYNQNYGRKFVQGKSIDVACHPGYALPKAQTTVTCMENGWSPTPRCIRVKTCSKSSIDIENGFISESQYTYALKEKAKYQCKLGYVTADGETSGSITCGKDGWSAQPTCIKSGASGCGPPPPIDNGDITSFPLSVYAPASSVEYQCQNLYQLEGNKRITCRNGQWSEPPKCLHPCVISREIMENYNIALRWTAKQKLYSRTGESVEFVCKRGYRLSSRSHTLRTTCWDGKLEYPTCAKRGGSGHHHHHH
C3 convertase activity % of the control: 0 % of the control
C3 convertase activity IC50: 493 µg/mL

B2: pCEP4-1NT10-19CT20 (other)
chain: EDCNELPPRRNTEILTGSWSDQTYPEGTQAIYKCRPGYRSLGNVIMVCRKGEWVALNPLRKCQKRPCGHPGDTPFGTFTLTGGNVFEYGVKAVYTCNEGYQLLGEINYRECDTDGWTNDIPICEVVKCLPVTAPENGKIVSSAMEPDREYHFGQAVRFVCNSGYKIEGDEEMHCSDDGFWSKEKPKCVEISCKSPDVINGSPISQKIIYKENERFQYKCNMGYEYSERGDAVCTESGWRPLPSCEEKSCDNPYIPNGDYSPLRIKHRTGDEITYQCRNGFYPATRGNTAKCTSTGWIPAPRCTLKPCDYPDIKHGGLYHENMRRPYFPVAVGKYYSYYCDEHFETPSGSYWDHIHCTQDGWSPAVPCLRKCYFPYLENGYNQNHGRKFVQGKSIDVACHPGYALPKAQTTVTCMENGWSPTPRCIRVKTCSKSSIDIENGFISESQYTYALKEKAKYQCKLGYVTADGETSGSITCGKDGWSAQPTCIKSCDIPVFMNARTKNDFTWFKLNDTLDYECHDGYESNTGSTTGSIVCGYNGWSDLPICYERECELPKIDVHLVPDRKKDQYKVGEVLKFSCKPGFTIVGPNSVQCYHFGLSPDLPICKEQVQSGASGCGPPPPIDNGDITSFPLSVYAPASSVEYQCQNLYQLEGNKRITCRNGQWSEPPKCLHPCVISREIMENYNIALRWTAKQKLYSRTGESVEFVCKRGYRLSSRSHTLRTTCWDGKLEYPTCAKRGGSGHHHHHH
C3 convertase activity % of the control: 1 % of the control
C3 convertase activity IC50: 6.05 µg/mL
